We go through 40 substances from patent publication US7423017B2, “Method for treating cartilage disorders” (Genentech, Inc., priority 1997, dated 2008).

Experiment [1] deals with T1, IGFBP-1 (Homo sapiens, UniProt P08833).
T1 sequence (P08833 26-259): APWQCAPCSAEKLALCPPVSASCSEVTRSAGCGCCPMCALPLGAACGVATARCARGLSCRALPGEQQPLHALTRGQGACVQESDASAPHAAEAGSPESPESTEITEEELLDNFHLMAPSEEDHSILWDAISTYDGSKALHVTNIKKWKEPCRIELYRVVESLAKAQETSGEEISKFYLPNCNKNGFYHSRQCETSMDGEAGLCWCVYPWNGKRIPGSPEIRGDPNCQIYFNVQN
The experiment is described as follows: competitive phage ELISA of IGF-1 mutants, IGFBP-1. The conditions noted are these: for IC50: phage display, soluble IGFBP-1 competitor; for increase in IGFBP-1 binding: phage ELISA. Also on record: made in house; host or cells: CHO cells. In kind it is binding. The procedure: (§1) An alanine-scanning mutagenesis approach (Cunningham and Wells, Science, 244: 1081-1085 (1989); U.S. Pat. No. 5,834,250) was used to remove that portion of each side chain of IGF-1 beyond the beta carbon. The contribution of these atoms to the free energy of binding of the IGF-1 analog to IGFBP-1 or to IGFBP-3 was then assessed by competitive phage ELISA. In this assay, IGFBP-1 or IGFBP-3 is used to inhibit IGF-phage mutants from binding to an IGFBP-1- or IGFBP-3-coated immunosorbant plate.
(§2) Immunosorbent plates (Nunc, MAXISORP™, 96 wells) were coated with 100 μl/well of 1 μg/ml IGFBP-1 or IGFBP-3 in PBS buffer pH 7.2 at 4° C. overnight. The plates were then blocked with 0.5% TWEEN 20™/PBS (also used as binding buffer) for 2 hours at room temperature (proteinaceous blocking agents like bovine serum albumin were avoided to prevent potential IGF or IGFBP contamination). E. coli cells (XL1-Blue, Stratagene) freshly transformed with phagemid vector were grown overnight in 5 mL 2YT medium (Sambrook et al., supra) in the presence of M13-VCS helper phage (Stratagene). Phage particles were harvested and resuspended in PBS buffer as described in Lowman, H. B., “Phage Display of Peptide Libraries on Protein Scaffolds,” in Cabilly, S. (ed.), Combinatorial Peptide Library Protocols (Humana Press Inc.: Totowa, N.J., 1998), pp. 249-264. Then phage concentrations were normalized to yield a maximal ELISA signal of 0.2-0.4 for each mutant (Lowman, in Cabilly, S. (ed.), supra). Threefold serial dilutions of soluble competitor were prepared on non-absorbent microtiter plates (Nunc, F, 96 wells) with binding buffer (0.5% TWEEN 20™/PBS) containing phage at the previously determined concentrations. The dilution range of competitor protein extended over six orders of magnitude, starting at 5 μM for IGFBP-1 and 500 nM for IGFBP-3. After blocking, the plates containing immobilized target were washed with 0.05% TWEEN™/PBS buffer and subsequently incubated with 80 μl/well of the premixed phage-competitor solutions for 1 hour at room temperature. After washing, bound phage was detected with 80 μl/well of a solution containing a primary rabbit anti-phage polyclonal antibody and a secondary goat anti-rabbit monoclonal antibody-horseradish peroxidase conjugate in 0.5% TWEEN 20™/PBS. o-Phenylenediamine (Sigma) and tetramethylbenzidine (Kirkegaard and Perry) were used as chromogenic substrates, resulting in product detection at 492 and 450 nm, respectively. IC50 values were determined by fitting the binding data to a generic saturation curve (Lowman, in Cabilly, S. (ed.), supra). At least two individual clones of each IGF-1 mutant were assayed. Numbers in Table XIII represent mean±standard deviation of individually assessed IC50 values.
(ELISA stands for enzyme-linked immunosorbent assay.)

The target in experiment [2] is T2, IGFBP-3 (Homo sapiens, UniProt P17936).
T2 construct: made in house
T2 sequence (P17936 28-291): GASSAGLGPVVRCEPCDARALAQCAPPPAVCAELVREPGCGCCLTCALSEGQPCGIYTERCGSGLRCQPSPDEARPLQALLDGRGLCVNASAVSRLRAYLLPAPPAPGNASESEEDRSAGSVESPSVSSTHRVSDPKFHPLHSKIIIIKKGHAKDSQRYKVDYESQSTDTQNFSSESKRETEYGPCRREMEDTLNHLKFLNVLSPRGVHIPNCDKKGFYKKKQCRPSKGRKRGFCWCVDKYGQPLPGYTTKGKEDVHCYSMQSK
The experiment is described as follows: competitive phage ELISA of IGF-1 mutants, IGFBP-3. The conditions noted are these: for IC50: phage display, soluble IGFBP-3 competitor; for increase in IGFBP-3 binding / larger effects on IGFBP-3 than on IGFBP-1 binding: phage ELISA. Type of experiment: binding. The procedure: as §1, §2

Experiment [3] deals with IGFBP-1. Description: competitive phage ELISA of IGF-1 mutants, IGFBP-1. In kind it is binding, human. Conditions: relative IC50 IGFBP-1/relative IC50 IGFBP-3. How it is done:
as §1, §2

[4] abbreviates: IC50 mut/IC50 G1S-A70V, listed as des(1-2)-IGF-1.

A value given as a limit tells only on which side of the number the result lay.

With P2A: IGF-1 single alanine mutant, the IC50 (usually the midpoint of a concentration-inhibition curve) in experiment [1] stood at 11 ± 3.7 nM; in experiment [2], 0.81 ± 0.18 nM. For the same substance, the relative specificity in experiment [3] worked out at 1.2.
The corresponding values for Y31A: IGF-1 single alanine mutant are 6.8 ± 0.5 nM, 0.73 ± 0.1 nM and 0.9.
Taken in the same sequence, the figures for D20A: IGF-1 single alanine mutant were 8.4 ± 4.1 nM, 1.11 ± 0.06 nM and 0.7.
On to P28A: IGF-1 single alanine mutant, for which the figures for the IC50 in experiment [1] and in experiment [2] were 9.3 ± 1.4 nM and 1.41 ± 0.05 nM, respectively. In experiment [3], this substance displayed a relative specificity of 0.6.
Taken in the same sequence, the figures for K65A: IGF-1 single alanine mutant were 12.4 ± 0.6 nM, 0.69 ± 0.05 nM and 1.6.
Taken in the same sequence, the figures for Y60A: IGF-1 single alanine mutant were 6.6 ± 1.8 nM, 0.52 ± 0.01 nM and 1.2.
The corresponding values for V17A: IGF-1 single alanine mutant are 42.9 ± 3.2 nM, 3.67 ± 1.02 nM and 1.1.
Substance T41A: IGF-1 single alanine mutant yielded an IC50 in experiment [1] of 13.7 ± 3.1 nM. For the same substance, in experiment [2], the “increase in IGFBP-3 binding” value was “approximately 2 fold” and the IC50 came out at 0.43 ± 0.06 nM. Also, the relative specificity in experiment [3] came to 2.9.
Take S51A: IGF-1 single alanine mutant: the half-inhibitory concentration (IC50) came to 13.4 ± 0.4 nM in experiment [1] and 0.65 ± 0.35 nM in experiment [2]. Further, in experiment [3], the relative specificity is 1.9.
Taken in the same sequence, the figures for R56A: IGF-1 single alanine mutant were 13.1 ± 1.8 nM, 1 ± 0.19 nM and 1.2.
The corresponding values for G19A: IGF-1 single alanine mutant are 11 ± 2.3 nM, 0.9 ± 0.28 nM and 1.1.
Y24A: IGF-1 single alanine mutant had a concentration for half-maximal inhibition (IC50) in experiment [1] of 13.3 ± 2.9 nM. In experiment [2], the “larger effects on IGFBP-3 than on IGFBP-1 binding” value (“larger effects on IGFBP-3 than” for short) is “about 2 fold” and the 50% inhibitory concentration (IC50) was found to be 2.53 ± 0.76 nM. Besides, in experiment [3], the relative specificity was determined as 0.5.
Turning to R21A: IGF-1 single alanine mutant, the IC50 in experiment [1] came to 7.1 ± 1.6 nM; in experiment [2] it was 0.58 ± 0.01 nM. In experiment [3], this substance yielded a relative specificity of 1.1.
Consider G32A: IGF-1 single alanine mutant, for which the IC50 was found to be 10.9 ± 1.3 nM in experiment [1] and 0.76 ± 0.28 nM in experiment [2]. In experiment [3], this substance gave a relative specificity of 1.3.
The corresponding values for Q15A: IGF-1 single alanine mutant are 13.9 ± 0.9 nM, 1.26 ± 0.41 nM and 1.0.
The corresponding values for G42A: IGF-1 single alanine mutant are 15.7 ± 3.4 nM, 0.53 ± 0.2 nM and 2.7.
The corresponding values for M59A: IGF-1 single alanine mutant are 13.1 ± 1.8 nM, 0.74 ± 0.14 nM and 1.6.
As for L10A: IGF-1 single alanine mutant, the concentration for half-maximal inhibition (IC50) in experiment [1] was 311 ± 87 nM; in experiment [2] it was 3.55 ± 0.33 nM.
For G30A: IGF-1 single alanine mutant, the half-maximal inhibitory concentration (IC50) came out at 7.1 ± 1.7 nM in experiment [1] and 0.58 ± 0.11 nM in experiment [2]. In experiment [3], this substance had a relative specificity of 1.1.
Take “Des(1-2)-IGF: IGF-1 mutant lacking residues 1 and 2”: in experiment [1] (setting [4]), the “IGFBP-1 Relative IC50” value is recorded as “no difference in affinity”. Besides, the “IGFBP-3 relative IC50” value in experiment [2] (setting [4]) was “no difference in affinity”. In experiment [3], this substance returned a relative specificity of 0.9.
As to L5A: IGF-1 single alanine mutant, the half-maximal inhibitory concentration (IC50) came to 55.3 ± 11.6 nM in experiment [1] and 1.53 ± 0.22 nM in experiment [2]. In experiment [3], this substance returned a relative specificity of 3.3.
Q40A: IGF-1 single alanine mutant: the IC50 in experiment [1] is 10.2 ± 0.9 nM; in experiment [2], 0.56 ± 0.03 nM. The substance further registered a relative specificity in experiment [3] of 1.7.
In the case of E9A: IGF-1 single alanine mutant, the concentration for half-maximal inhibition (IC50) in experiment [1] came to 8.6 ± 0.6 nM; in experiment [2] it was 1.32 ± 0.3 nM. Further, the “larger effects on IGFBP-3 than” value in experiment [2] is “about 2 fold”. Moreover, the relative specificity in experiment [3] turned out to be 0.6.
As for G7A: IGF-1 single alanine mutant, the figures for the IC50 in experiment [1] and in experiment [2] were greater than 1000 nM and 4.58 ± 0.28 nM, respectively.
In the case of S34A: IGF-1 single alanine mutant, in experiment [1], the IC50 is 9.5 ± 0.7 nM. For the same substance, in experiment [2], the “larger effects on IGFBP-3 than” value was “about 2 fold” and the IC50 is 1.65 ± 0.21 nM. This substance displayed a relative specificity in experiment [3] of 0.5.
On to K27A: IGF-1 single alanine mutant, for which the IC50 in experiment [1] was 12.8 ± 0.1 nM; in experiment [2], 0.66 ± 0.35 nM. For the same substance, in experiment [3], the relative specificity was determined as 1.8.
Taken in the same sequence, the figures for D53A: IGF-1 single alanine mutant were 15.3 ± 2.8 nM, 1.05 ± 0.11 nM and 1.6.
Taken in the same sequence, the figures for K68A: IGF-1 single alanine mutant were 10.5 ± 2.8 nM, 0.76 ± 0.23 nM and 1.3.
Taken in the same sequence, the figures for L14A: IGF-1 single alanine mutant were 36.7 ± 1.1 nM, 0.9 ± 0.04 nM and 3.7.
As to D45A: IGF-1 single alanine mutant, in experiment [1], the “increase in IGFBP-1 binding” value is on record as “approximately 2 fold” and the concentration for half-maximal inhibition (IC50) is 4.7 ± 0.7 nM. For the same substance, in experiment [2], the “larger effects on IGFBP-3 than” value was “about 2 fold” and the concentration for half-maximal inhibition (IC50) was 0.69 ± 0.21 nM. This substance also came in with a relative specificity in experiment [3] of 0.6.
With V44A: IGF-1 single alanine mutant, the IC50 in experiment [1] was determined as 18.8 ± 5.4 nM; in experiment [2], 1.03 ± 0.06 nM. This substance came in with a relative specificity in experiment [3] of 1.7.
The corresponding values for N26A: IGF-1 single alanine mutant are 9.1 ± 1.8 nM, 0.9 ± 0.07 nM and 0.9.
Taken in the same sequence, the figures for R55A: IGF-1 single alanine mutant were 9 ± 2.3 nM, 0.66 ± 0.03 nM and 1.2.
D12A: IGF-1 single alanine mutant: in experiment [1], the “increase in IGFBP-1 binding” value is given as “approximately 2 fold” and the half-inhibitory concentration (IC50) was 4.3 ± 0.8 nM. Further, in experiment [2], the “larger effects on IGFBP-3 than” value is “about 2 fold” and the IC50 was found to be 1.49 ± 0.38 nM. The relative specificity in experiment [3] is on record as 0.3.
For the substance R37A: IGF-1 single alanine mutant, the IC50 came to 12.3 ± 0.1 nM in experiment [1] and 0.75 ± 0.08 nM in experiment [2]. The same substance displayed a relative specificity in experiment [3] of 1.5.
On to E3A: IGF-1 single alanine mutant, for which the values for the 50% inhibitory concentration (IC50) in experiment [1] and in experiment [2] were 278 ± 86 nM and 1.05 ± 0.08 nM, respectively.
Turning to S35A: IGF-1 single alanine mutant, the 50% inhibitory concentration (IC50) in experiment [1] came out at 11.7 ± 0.6 nM; in experiment [2], 0.47 ± 0.01 nM. In addition, the “increase in IGFBP-3 binding” value in experiment [2] is “approximately 2 fold”. The relative specificity in experiment [3] was 2.3.
In experiment [3], “S1G: single mutant of G1S-A70V IGF-1 restoring G1” registered a relative specificity of 1.0.
On to P63A: IGF-1 single alanine mutant, for which the IC50 in experiment [1] was greater than 1000 nM; in experiment [2] it was greater than 100 nM.
On to “V70A: single mutant of G1S-A70V IGF-1 restoring A70”, for which the relative specificity in experiment [3] was found to be 2.6.
